Experimental data published in patent US20030109454A1 (ADHEREX TECHNOLOGIES, published 2003).

B1: N-Ac-WLKIDPVNGQI-NH2 (peptide)
peptide: Ac-WLKIDPVNGQI-NH2
B2: N-Ac-INAISGQ-NH2 (peptide)
peptide: Ac-INAISGQ-NH2
B3: N-Ac-LNPISGQ-NH2 (peptide)
peptide: Ac-LNPISGQ-NH2
B4: N-Ac-INPASGQ-NH2 (peptide)
peptide: Ac-INPASGQ-NH2
B5: N-Ac-INPISGQ-NH2 (peptide)
peptide: Ac-INPISGQ-NH2
B6: H-LKIDPVNGQI-OH (peptide)
peptide: H-LKIDPVNGQI-OH
B7: N-Ac-WLKIDAVNGQI-NH2 (peptide)
peptide: Ac-WLKIDAVNGQI-NH2
B8: N-Ac-IDPVNGQ-NH2 (peptide)
peptide: Ac-IDPVNGQ-NH2
B9: H-LKIDPANGQI-OH (peptide)
peptide: H-LKIDPANGQI-OH
B10: N-Ac-NLKIDPVNGQI-NH2 (peptide)
peptide: Ac-NLKIDPVNGQI-NH2
B11: N-Ac-CIDPVNC-NH2 (peptide)
peptide: Ac-CIDPVNC-NH2
modifications: not fully specified (bridges); printed as N-Ac-CIDPVNC-NH2; also: cyclic peptide, linkage not given here
B12: N-Ac-WLKADAVNGQI-NH2 (peptide)
peptide: Ac-WLKADAVNGQI-NH2
B13: N-Ac-WLKADPVNGQI-NH2 (peptide)
peptide: Ac-WLKADPVNGQI-NH2
B14: H-WLKIDPVNGQI-OH (peptide)
peptide: H-WLKIDPVNGQI-OH
B15: H-LKIDAVNGQI-OH (peptide)
peptide: H-LKIDAVNGQI-OH
B16: N-Ac-CINPC-NH2 (peptide)
peptide: Ac-CINPC-NH2
modifications: also: cyclic peptide, ring type not given here
B17: N-Ac-CINPISC-NH2 (peptide)
peptide: Ac-CINPISC-NH2
modifications: not fully specified (bridges); printed as N-Ac-CINPISC-NH2; also: cyclic peptide, linkage not given here
B18: N-Ac-CINPIC-NH2 (peptide)
peptide: Ac-CINPIC-NH2
modifications: not fully specified (bridges); also: cyclic peptide, linkage not given here

These binders were tested against N-cadherin expressed on transfected 3T3 cells (assay: cell-based or functional assay).

Binder | EC50 of inhibition of neurite outgrowth
B1 | 0.046 mM

Target: N-cadherin expressed on transfected 3T3 cells
Assay: cell-based or functional assay
Remark: another data set of the same source

Binder | percent inhibition of neurite outgrowth on 3T3 cells expressing N-cadherin, peptide at 100 µg/ml
B2 | 37.2%
B3 | 19.2%
B4 | 7.2%
B5 | 94.5%

Target: N-cadherin expressed on transfected 3T3 cells
Assay: cell-based or functional assay
Remark: another data set of the same source

Binder | percent inhibition of neurite outgrowth, peptide at 100 µg/ml | percent inhibition of neurite outgrowth, peptide at 250 µg/ml | percent inhibition of neurite outgrowth, peptide at 33 µg/ml
B6 | 46% | – | –
B7 | 12.4% | 52.3% | –
B1 | 66.9% | 83.5% | 19.8%
B8 | 56.4% | 85.6% | 34.3%
B9 | 56.8% | – | –
B10 | 67.8% | 86.8% | 25.6%
B11 | 75.8% | 96.4% | 40.6%
B12 | 10.5% | 19.7% | –
B13 | 22.2% | 54.7% | –
B14 | 76.1% | – | –
B15 | 104% | – | –

Target: N-cadherin expressed on transfected 3T3 cells
Assay: cell-based or functional assay
Remark: another data set of the same source

Binder | EC50 of inhibition of neurite outgrowth on 3T3 cells expressing N-cadherin
B16 | 0.0143 mM
B17 | 0.0381 mM
B18 | 0.0382 mM
